These results are taken from patent US20150266963A1 (ARGEN X B V, published 2015).

The target in one assay is T1, mouse Flag-TNC-CD70 (mouse, UniProt O55237 45-195).
T1 construct: extracellular domain; also called mouse CD70; not shown: Flag tag and TNC trimerisation domain
T1 sequence (looked up): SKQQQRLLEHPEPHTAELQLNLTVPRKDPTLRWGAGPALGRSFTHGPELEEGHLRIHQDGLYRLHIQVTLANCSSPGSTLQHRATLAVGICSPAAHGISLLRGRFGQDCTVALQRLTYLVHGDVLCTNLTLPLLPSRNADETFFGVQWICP
In words: ELISA; mouse Flag-TNC-CD70 captured by anti-Flag mAb.

The target in assay [1] is T2, human CD70 expressed on the surface of cells (human, UniProt P32970 1-193).
T2 construct: whole, on cells; also called cell surface expressed CD70; CD70 on cells
T2 sequence (looked up): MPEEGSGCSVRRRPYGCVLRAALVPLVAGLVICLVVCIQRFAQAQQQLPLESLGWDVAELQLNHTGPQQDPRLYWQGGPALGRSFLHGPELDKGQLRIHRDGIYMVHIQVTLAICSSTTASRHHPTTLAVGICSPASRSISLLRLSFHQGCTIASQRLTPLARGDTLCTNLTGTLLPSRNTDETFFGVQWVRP
In words: FACS MFI at 37 C, MHHPREB1 cells; reference SGN70. As for the experimental part:
(§1) Several cancer cell lines were tested by FACS analysis for binding of ARGX-110 and SGN70 (described in US2010/0129362) at saturating mAb concentrations (at least 2 μg/ml). This was either done at 4° C. (1 hour incubation of cells with mAbs) or at 37° C. (15 minutes incubation of cells with mAbs). Binding was detected using anti-hIgG1-Fc-FITC (AF006, Binding Site) or anti-hIgG1-Fc-PE antibody (eBioscience, 12-4998). Fluorescence was measured using a flow cytometer.

In assay [2] the target is T2, human CD70 expressed on the surface of …. Description: FACS MFI at 37 C, SU-DHL-6 cells; reference SGN70. As for the experimental part: as §1
Assay [3] has the same target. Description: flow cytometry on U266 cells, goat anti human IgG1 FITC [panel U266].
For assay [4] the target is unchanged. In words: FACS MFI at 37 C, A498 cells; reference SGN70. As for the experimental part:
as §1

For assay [5] the target is unchanged. Description: flow cytometry on U266 cells, 1 h at 4 °C, anti-hIgG1-Fc-FITC or anti-hIgG-Fc-PE [panel U266]. The method, then:
[…] This was either done at 4° C. (1 hour incubation of cells with mAbs) or at 37° C. (15 minutes incubation of cells with mAbs). Binding was detected using anti-hIgG1-Fc-FITC (AF006, Binding Site) or anti-hIgG1-Fc-PE antibody (eBioscience, 12-4998). Fluorescence was measured using a flow cytometer.

The target in assay [6] is T3, rhesus CD70 on LCL8664 cells (rhesus, UniProt F7GPA5 123-316).
T3 construct: whole, on cells
T3 sequence: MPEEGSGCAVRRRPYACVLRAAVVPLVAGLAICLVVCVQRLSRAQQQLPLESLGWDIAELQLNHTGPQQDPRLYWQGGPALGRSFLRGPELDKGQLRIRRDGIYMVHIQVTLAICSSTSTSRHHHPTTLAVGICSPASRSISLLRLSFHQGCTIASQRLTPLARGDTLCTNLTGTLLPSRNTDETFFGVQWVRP
Description: flow cytometry on rhesus LCL8664 cells, goat anti human IgG1 FITC [panel Rhesus monkey].

Assay [7] addresses T2, human CD70 expressed on the surface of …. Description: FACS MFI at 37 C, JVM-2 cells; reference SGN70. The method, then:
as §1

Assay [8] shares this target. Description: FACS MFI at 37 C, Raji cells; reference SGN70. The method, then: as §1
Assay [9] shares this target. Description: FACS MFI at 37 C, HH cells; reference SGN70. As for the experimental part: as §1
The target is the same in assay [10]. In words: FACS MFI at 37 C, EBC-1 cells; reference SGN70. The method, then: as §1
Assay [11] shares this target. In words: FACS MFI at 37 C, Mec1 cells; reference SGN70. As for the experimental part: as §1
For assay [12] the target is unchanged. In words: FACS MFI at 37 C, 786-O cells; reference SGN70. As for the experimental part:
as §1

For assay [13] the target is unchanged. Description: FACS MFI at 37 C, Mino cells; reference SGN70. The method, then:
as §1

B1: ARGX-110 (non-fucosylated 41D12 human IgG1) (antibody, V domains shown)
VH: EVQLVESGGGLVQPGGSLRLSCAASGFTFSVYYMNWVRQAPGKGLEWVSDINNEGGTTYYADSVKGRFTISRDNSKNSLYLQMNSLRAEDTAVYYCARDAGYSNHVPIFDSWGQGTLVTVSS
VL: QAVVTQEPSLTVSPGGTVTLTCGLKSGSVTSDNFPTWYQQTPGQAPRLLIYNTNTRHSGVPDRFSGSILGNKAALTITGAQADDEAEYFCALFISNPSVEFGGGTQLTVLG
notes: also called 41D12 (ARGX-110)
Consider B1, for which, in the assay with mouse Flag-TNC-CD70, the binding result is “no binding (tested: dilution series from 10 µg/ml)”. Also, the “Signal in FACS of ARGX-110/signal in FACS of SGN70” value is 1.2 ratio in assay [1]; 2.4 ratio in [2]; 1 ratio in assay [4]; 2.4 ratio in assay [7]; 1.2 ratio in assay [8]; 1.7 ratio in assay [9]. The “Signal in FACS of ARGX-110/signal in FACS of SGN70” value in assay [10] was found to be 8.9 ratio; in assay [11] it was 1.2 ratio; in assay [12] it was 2.1 ratio; in assay [13], 1 ratio. For the same molecule, the “EC50 (read off the curve)” value in [3] was ~0.1 µg/mL; in [5] it was ~0.1 µg/mL; in assay [6] it was ~0.2 µg/mL.
